Test results as given in patent US20080153132.

Molecular target: prothrombin, P00734

B1: genetic recombinant ecarin (protein)
chain: IILGSGNVNDYEVVYPQKVTALPKGAVQQPEQKYEDAMQYEFEVKGEPVVLHLEKNKELFSEDYSETHYSSDDREITTNPSVEDHCYYHGRIQNDAESTASISACNGLKGHFKLRGETYFIEPLKIPDSEAHAVYKYENIENEDEAPKMCGVTQDNWESDEPIKKTLGLIVPPHERKFEKKFIELVVVVDHSMVTKYNNDSTAIRTWIYEMLNTVNEIYLPFNIRVALVGLEFWCNGDLINVTSTADDTLHSFGEWRASDLLNRKRHDHAQLLTNVTLDHSTLGITFVYGMCKSDRSVELILDYSNITFNMAYIIAHEMGHSLGMLHDTKFCTCGAKPCIMFGKESIPPPKEFSSCSYDQYNKYLLKYNPKCILDPPLRKDIASPAVCGNEIWEEGEECDCGSPADCRNPCCDAATCKLKPGAECGNGECCDKCKIRKAGTECRPARDDCDVAEHCTGQSAECPRNEFQRNGQPCLNNSGYCYNGDCPIMLNQCIALFSPSATVAQDSCFQRNLQGSYYGYCTKEIGYYGKRFPCAPQDVKCGRLYCLDNSFKKNMRCKNDYSYADENKGIVEPGTKCEDGKVCINRKCVDVNTAY
N-terminal amino acid sequence of the thrombin B chain after activation: the recombinant ecarin obtained according to the present invention specifically cleaves the peptide bond at the Arg-Ile site in prothrombin like snake venom derived ecarin
activity to cleave S-2238 (thrombin enzymatic activity after 16 hours at 37 C with 2 U/mL recombinant ecarin): the activity to cleave S-2238 was detected in prothrombin when added with the recombinant ecarin
